Measured values taken from patent US20240261333A1 (published 2024).

Experiments:
Assay in all cases: co-IP, anti-FLAG, N-FLAG B3GNT2 cell lysate, mass spectrometry
[1] = biological target: T1, SRSF3 (UniProt P84103 1-164)
T1 construct: also called NP_003008.1
T1 sequence (looked up): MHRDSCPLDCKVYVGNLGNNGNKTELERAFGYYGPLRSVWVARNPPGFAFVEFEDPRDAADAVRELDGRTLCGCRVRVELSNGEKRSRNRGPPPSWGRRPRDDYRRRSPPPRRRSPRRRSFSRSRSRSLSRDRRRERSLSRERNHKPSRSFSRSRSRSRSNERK
Protocol: (§1) Cells were plated in 10-cm cell culture dishes and grown to 60-80% confluency. For each condition, two biological replicates were harvested for co-IP. Cells were washed with PBS and 4 mL of lysis buffer (20 mM HEPES, 1% Triton X-100, 150 mM NaCl, 1 mM EDTA, and 10% glycerol) containing protease inhibitor cocktail was added. Cells were scraped and lysate was incubated at 4° C. under rotary agitation for 1 h. Lysate was centrifuged at 14,000×g for 10 min at 4° C. Supernatant was transferred to a new tube and an aliquot was taken as the input. […] For Western blots, 10 μg/mL Chicken Anti-FLAG (Aves labs ET-DY100) and IgY control (R&D Systems AB-101-C) antibodies were biotinylated (Thermo Fisher Scientific 90407) and added to the respective conditions. Lysates with antibodies were incubated at 4° C. under rotary agitation overnight. For each mL of lysate, 50 μL of Pierce Protein A/G Magnetic Beads (Mass spectrometry; Thermo Fisher Scientific 88803) or Pierce Streptavidin Magnetic Beads (Western blot; Thermo Fisher Scientific 88817) was washed twice with lysis buffer. Lysates with antibodies were added to the beads and incubated at 4° C. under rotary agitation for 4 h. Beads were washed with lysis buffer 3 times and resuspended in lysis buffer for storage.
(§2) Magnetic beads were resuspended in 100 mM Tris pH 7.8, reduced, alkylated and digested with trypsin at 37° ° C. overnight. This solution was subjected to solid phase extraction to concentrate the peptides and remove unwanted reagents followed by injection onto a Shimadzu HPLC with fraction collector. Eight fractions were collected and after concentration were injected on a Waters NanoAcquity HPLC equipped with a self-packed Aeris 3 μm C18 analytical column 0.075 mm by 20 cm, (Phenomenex). Peptides were eluted using standard reverse-phase gradients. The effluent from the column was analyzed using a Thermo Orbitrap Elite mass spectrometer (nanospray configuration) operated in a data dependent manner for 54 minutes. The resulting fragmentation spectra were correlated against the known database using Proteome Discover 1.4 (Thermo Fisher Scientific).

[2] = biological target: RPS18 (UniProt P62269 2-152)
Protocol: as §1, §2

[3] = biological target: T2, DDX20 (UniProt Q9UHI6 1-824)
T2 construct: also called NP_009135.4
T2 sequence (looked up): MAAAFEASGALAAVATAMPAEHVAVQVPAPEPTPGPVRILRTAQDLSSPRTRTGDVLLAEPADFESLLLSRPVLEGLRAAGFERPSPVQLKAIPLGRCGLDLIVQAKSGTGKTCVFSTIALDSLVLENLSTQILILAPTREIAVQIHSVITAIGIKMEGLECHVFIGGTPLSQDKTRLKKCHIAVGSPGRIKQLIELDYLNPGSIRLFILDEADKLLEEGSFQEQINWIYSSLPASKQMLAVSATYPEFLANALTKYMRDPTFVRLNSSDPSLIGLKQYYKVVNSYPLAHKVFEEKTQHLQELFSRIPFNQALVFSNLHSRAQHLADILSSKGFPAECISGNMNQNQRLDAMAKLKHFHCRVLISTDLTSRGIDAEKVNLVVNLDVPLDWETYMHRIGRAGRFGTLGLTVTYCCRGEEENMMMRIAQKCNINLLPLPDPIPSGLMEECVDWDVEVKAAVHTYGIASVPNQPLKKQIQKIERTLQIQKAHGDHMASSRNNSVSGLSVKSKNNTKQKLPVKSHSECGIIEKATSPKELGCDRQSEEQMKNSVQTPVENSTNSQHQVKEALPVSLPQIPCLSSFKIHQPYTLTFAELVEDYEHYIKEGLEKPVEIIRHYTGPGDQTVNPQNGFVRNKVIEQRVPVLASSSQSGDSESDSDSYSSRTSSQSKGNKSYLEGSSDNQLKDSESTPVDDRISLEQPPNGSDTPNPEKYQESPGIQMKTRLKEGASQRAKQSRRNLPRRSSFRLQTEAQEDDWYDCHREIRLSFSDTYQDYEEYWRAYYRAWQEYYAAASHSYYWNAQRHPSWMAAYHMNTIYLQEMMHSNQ
Protocol: as §1, §2

[4] = biological target: RPS16 (UniProt P62249 2-146)
Protocol: as §1, §2

[5] = biological target: T3, DEFA3 (UniProt P59666 65-94, limits assumed)
T3 construct: also called NP_005208.1 (+1)
T3 sequence (P59666 65-94 limits assumed): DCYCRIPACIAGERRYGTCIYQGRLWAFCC
Protocol: as §1, §2

[6] = biological target: T4, ARG1 (UniProt P05089 1-322)
T4 construct: also called NP_000036.2 (+1)
T4 sequence (looked up): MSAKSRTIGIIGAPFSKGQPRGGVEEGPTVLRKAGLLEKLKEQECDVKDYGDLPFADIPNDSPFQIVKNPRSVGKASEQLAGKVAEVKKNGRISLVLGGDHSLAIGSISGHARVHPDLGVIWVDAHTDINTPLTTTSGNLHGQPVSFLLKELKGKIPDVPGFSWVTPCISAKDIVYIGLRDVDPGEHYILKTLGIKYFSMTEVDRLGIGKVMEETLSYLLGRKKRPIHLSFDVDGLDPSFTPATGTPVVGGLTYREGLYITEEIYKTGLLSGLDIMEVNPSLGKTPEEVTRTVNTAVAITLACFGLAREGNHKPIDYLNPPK
Protocol: as §1, §2

[7] = biological target: T5, SRSF1 (UniProt Q07955 2-248)
T5 construct: also called NP_008855.1
T5 sequence (Q07955 2-248 limits assumed): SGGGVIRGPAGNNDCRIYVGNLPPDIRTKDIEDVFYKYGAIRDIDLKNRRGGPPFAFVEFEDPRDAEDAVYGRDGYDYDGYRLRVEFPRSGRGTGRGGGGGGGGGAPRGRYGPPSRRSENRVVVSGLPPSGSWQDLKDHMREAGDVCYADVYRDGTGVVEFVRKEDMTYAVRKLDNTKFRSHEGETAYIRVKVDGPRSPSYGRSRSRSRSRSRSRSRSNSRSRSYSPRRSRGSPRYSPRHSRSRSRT
Protocol: as §1, §2

[8] = biological target: RPL5 (UniProt P46777 2-297)
Protocol: as §1, §2

[9] = biological target: T6, CFL1 (UniProt P23528 2-166)
T6 construct: also called NP_005498.1
T6 sequence (P23528 2-166 limits assumed): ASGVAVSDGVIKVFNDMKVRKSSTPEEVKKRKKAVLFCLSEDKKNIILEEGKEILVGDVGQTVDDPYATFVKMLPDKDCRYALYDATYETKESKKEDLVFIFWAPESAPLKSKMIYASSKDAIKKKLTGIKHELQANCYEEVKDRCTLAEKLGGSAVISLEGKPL
Protocol: as §1, §2

[10] = biological target: T7, TNKS1BP1 (UniProt Q9C0C2 1-1729)
T7 construct: also called NP_203754.2
T7 sequence (Q9C0C2 whole entry): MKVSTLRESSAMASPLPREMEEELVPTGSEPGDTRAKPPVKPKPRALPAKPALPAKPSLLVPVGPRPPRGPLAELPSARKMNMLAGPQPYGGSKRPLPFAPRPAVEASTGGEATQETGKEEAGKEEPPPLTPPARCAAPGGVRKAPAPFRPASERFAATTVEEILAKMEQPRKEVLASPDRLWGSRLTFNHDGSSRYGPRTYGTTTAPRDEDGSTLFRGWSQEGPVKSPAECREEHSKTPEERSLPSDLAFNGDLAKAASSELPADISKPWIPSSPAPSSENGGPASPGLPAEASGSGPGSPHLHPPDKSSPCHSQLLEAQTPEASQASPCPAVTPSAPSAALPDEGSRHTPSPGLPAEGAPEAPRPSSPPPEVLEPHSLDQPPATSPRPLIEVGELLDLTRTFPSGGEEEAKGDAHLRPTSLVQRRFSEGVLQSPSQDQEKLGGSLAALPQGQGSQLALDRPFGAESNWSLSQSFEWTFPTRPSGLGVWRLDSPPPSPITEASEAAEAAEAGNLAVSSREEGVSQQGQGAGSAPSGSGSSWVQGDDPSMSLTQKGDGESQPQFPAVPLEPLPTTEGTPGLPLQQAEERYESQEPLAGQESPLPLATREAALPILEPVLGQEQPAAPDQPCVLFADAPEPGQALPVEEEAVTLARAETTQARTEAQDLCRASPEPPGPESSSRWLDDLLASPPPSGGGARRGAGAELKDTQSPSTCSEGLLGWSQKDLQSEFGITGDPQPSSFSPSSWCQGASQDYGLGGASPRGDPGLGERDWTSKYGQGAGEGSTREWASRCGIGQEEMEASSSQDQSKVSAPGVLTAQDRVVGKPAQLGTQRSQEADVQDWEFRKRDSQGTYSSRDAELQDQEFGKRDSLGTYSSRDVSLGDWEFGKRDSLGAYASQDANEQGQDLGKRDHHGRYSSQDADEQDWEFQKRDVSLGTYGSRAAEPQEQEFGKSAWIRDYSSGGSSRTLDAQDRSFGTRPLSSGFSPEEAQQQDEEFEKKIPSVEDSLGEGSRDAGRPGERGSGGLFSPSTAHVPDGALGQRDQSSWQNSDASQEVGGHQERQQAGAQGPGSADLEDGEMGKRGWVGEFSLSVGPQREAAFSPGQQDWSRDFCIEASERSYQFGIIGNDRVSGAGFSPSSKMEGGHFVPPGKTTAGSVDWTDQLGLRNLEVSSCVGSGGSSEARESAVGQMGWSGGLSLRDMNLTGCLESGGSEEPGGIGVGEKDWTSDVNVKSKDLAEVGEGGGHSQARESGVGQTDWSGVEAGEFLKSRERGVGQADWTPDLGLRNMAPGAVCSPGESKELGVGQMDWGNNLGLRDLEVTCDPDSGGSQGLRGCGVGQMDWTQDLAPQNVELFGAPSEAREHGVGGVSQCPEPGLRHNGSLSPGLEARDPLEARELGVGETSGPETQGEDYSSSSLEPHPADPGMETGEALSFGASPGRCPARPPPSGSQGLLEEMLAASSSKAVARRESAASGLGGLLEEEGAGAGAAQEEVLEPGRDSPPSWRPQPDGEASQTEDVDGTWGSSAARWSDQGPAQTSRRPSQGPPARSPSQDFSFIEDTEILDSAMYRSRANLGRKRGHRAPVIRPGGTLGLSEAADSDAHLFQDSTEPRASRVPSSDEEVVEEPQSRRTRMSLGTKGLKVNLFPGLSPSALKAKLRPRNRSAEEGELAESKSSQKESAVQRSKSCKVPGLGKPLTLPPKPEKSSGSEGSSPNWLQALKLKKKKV
Protocol: as §1, §2

B1: N-terminal FLAG tagged B3GNT2 (enzyme, human, UniProt Q9NY97 1-397, looked up)
chain: MSVGRRRIKLLGILMMANVFIYFIMEVSKSSSQEKNGKGEVIIPKEKFWKISTPPEAYWNREQEKLNRQYNPILSMLTNQTGEAGRLSNISHLNYCEPDLRVTSVVTGFNNLPDRFKDFLLYLRCRNYSLLIDQPDKCAKKPFLLLAIKSLTPHFARRQAIRESWGQESNAGNQTVVRVFLLGQTPPEDNHPDLSDMLKFESEKHQDILMWNYRDTFFNLSLKEVLFLRWVSTSCPDTEFVFKGDDDVFVNTHHILNYLNSLSKTKAKDLFIGDVIHNAGPHRDKKLKYYIPEVVYSGLYPPYAGGGGFLYSGHLALRLYHITDQVHLYPIDDVYTGMCLQKLGLVPEKHKGFRTFDIEEKNKNNICSYVDLMLVHSRKPQEMIDIWSQLQSAHLKC
notes: Bait of the co-IP; pulled down with mouse anti-FLAG from cell lysate; also called N-FLAG B3GNT2; N-term FLAG; not shown: FLAG tag at the N-terminus
co-IP mass spectrometry count [1]: 6 | co-IP mass spectrometry count [2]: 15 | co-IP mass spectrometry count [3]: 0 | co-IP mass spectrometry count [4]: 9 | co-IP mass spectrometry count [5]: 5 | co-IP mass spectrometry count [6]: 8 | co-IP mass spectrometry count [7]: 4 | co-IP mass spectrometry count [8]: 0 | co-IP mass spectrometry count [9]: 5 | co-IP mass spectrometry count [10]: 2
